From patent US20180214548A1 (SHANGHAI YUNYI HEALTHCARE AND TECHNOLOGY, published 2018)

T1: B7-1 (human, UniProt P33681 35-242)
T1 sequence (looked up): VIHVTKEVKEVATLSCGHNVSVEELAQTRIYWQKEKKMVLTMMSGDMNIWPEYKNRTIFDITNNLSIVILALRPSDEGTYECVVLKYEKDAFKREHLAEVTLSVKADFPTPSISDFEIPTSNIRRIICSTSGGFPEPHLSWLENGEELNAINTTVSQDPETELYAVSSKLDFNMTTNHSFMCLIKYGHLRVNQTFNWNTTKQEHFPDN

T2: ICOS (human, UniProt Q9Y6W8 21-140, limits assumed)
T2 sequence (looked up): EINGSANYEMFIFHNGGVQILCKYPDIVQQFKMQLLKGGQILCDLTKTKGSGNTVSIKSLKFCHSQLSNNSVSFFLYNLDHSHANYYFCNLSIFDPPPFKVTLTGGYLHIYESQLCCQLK

T3: CTLA4 (human, UniProt P16410 37-162, limits assumed)
T3 sequence (looked up): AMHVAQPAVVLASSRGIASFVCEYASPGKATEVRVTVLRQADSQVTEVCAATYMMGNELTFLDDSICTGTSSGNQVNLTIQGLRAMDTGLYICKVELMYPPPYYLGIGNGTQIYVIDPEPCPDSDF

B1: chimeric anti-PD-1 antibody 32B5C7 (antibody, V domains shown)
VH: EVQLLESGGGLVQPGGSLRLSCAASGFTFSSYAMSWVRQAPGKGLEWVSTISGSGGTTYYADSVKGRFTISRDNSKNTLYLQMNSLRAEDTAVYYCTLTGDPDYWGQGTLVTVSS
VL: EIVLTQSPATLSLSPGERATLSCRASQSVSSYLAWYQQKPGQAPRLLIYDASKRATGIPARFSGSGSGTDFTLTISSLEPEDFAVYYCQQRNNWPLTFGGGTKVEIK
notes: Purified from hybridoma of Harbour H2L2 mice: human variable regions, rat constant regions
B2: chimeric anti-PD-1 antibody 76G5B3 (antibody, V domains shown)
VH: QVQLVESGGGVVQPGRSLRLSCAASGFTFSDYGFHWVRQAPGKGLEWVAVIWYDGSNEYYTDSVKGRFTISRDNSKNTLYLQMNSLRAEDTAMYFCVVNPFDYWGQGTLVTVSS
VL: DIQMTQSPSSLSAFVGDRVTITCRASQGINHYLAWYQQKPGKAPNLLILAASTLLSGVPSRFGGRGSGTDFTLIISSLQPEDVATYYCQKYDSAPYTFGQGTKLEIK
notes: as for B1
B3: chimeric anti-PD-1 antibody 21G8F11 (antibody, V domains shown)
VH: EVQLLESGGGLAQPGGSLRLSCAASGFSFNTYLMHWVRQAPGKGLEWVSAISGGGGNTYYADSVKGRFTISRDNSKNTLYLQMNSLRAEDTAVYYCAKENRIPVAPFDYWGQGTLVTVSS
VL: DIQMTQSPSTLSASVGDRVTITCRASQSISTWLAWYQQKPGKAPKLLIYKASSLESGVPSRFSGSGSGTEFTLTISSLQPDDLATYYCQQYNSFSWTFGQGTKVEIK
notes: as for B1

molecular target: T4, CD28 (human, UniProt P10747 19-152); assay: ELISA on coated protein (Table 9)
Method: (§1) 100 uL of the diluted recombinant proteins were added to each well of 96-well plate. The plates were sealed with plastic film and incubated at 4° C. overnight. The plates were washed twice with wash buffer (PBS+0.01% (v/v) Tween20), and incubated with blocking buffer (PBS+0.01% (v/v) Tween20+1% (w/w) BSA) at room temperature for 2 hours. The blocking buffer was aspirated away, and 100 uL of purified anti-PD-1 antibodies were added to each well and incubated for 2 hours at 37° C. The plates were washed three times with wash buffer (PBS+0.01% (v/v) Tween20). HRP-conjugated secondary antibody (Sigma) was added to each well and incubated for 2 hours at 37° C. After the plates were washed three times with wash buffer, 100 uL TMB substrate was added to each well and incubated for 30 minutes at room temperature. 100 uL stop solution (0.1N HCl) was added to each well to stop the reaction. The absorbance at 450 nm was measured with an ELISA plate reader (384plus SpectraMax, Molecular Devices).

T4 sequence (P10747 19-152 limits assumed): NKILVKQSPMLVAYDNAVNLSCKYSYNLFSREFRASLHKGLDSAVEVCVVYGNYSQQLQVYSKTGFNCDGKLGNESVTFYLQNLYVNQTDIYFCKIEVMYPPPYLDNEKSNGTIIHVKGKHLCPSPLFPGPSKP

Row | binding result | Binder
1 | no binding | B1
2 | no binding | B2
3 | no binding | B3

molecular target: T1, B7-1; assay: ELISA on coated protein (Table 9)
Method: as §1

Row | binding result | Binder
4 | no binding | B1
5 | no binding | B2
6 | no binding | B3

molecular target: T2, ICOS; assay: ELISA on coated protein (Table 9)
Method: as §1

Row | binding result | Binder
7 | no binding | B1
8 | no binding | B2
9 | no binding | B3

molecular target: T3, CTLA4; assay: ELISA on coated protein (Table 9)
Method: as §1

Row | binding result | Binder
10 | no binding | B1
11 | no binding | B2
12 | no binding | B3

molecular target: T5, human PD-1^ECD-hFc protein (Immunogen A) (human, UniProt Q15116 25-167); assay: ELISA, coated human PD-1ECD-hFc; antibody 1 nM
T5 construct: Biotinylated for the Octet assay; also called PD-1-hFc; hPD-1^ECD-hFc; not shown: human IgG Fc fragment (hFc)
Method: as §1

T5 sequence (Q15116 25-167): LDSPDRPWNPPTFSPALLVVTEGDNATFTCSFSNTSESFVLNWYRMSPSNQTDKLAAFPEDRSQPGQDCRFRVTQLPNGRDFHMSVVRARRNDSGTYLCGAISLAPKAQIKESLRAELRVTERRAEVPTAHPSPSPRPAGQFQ

Row | OD450 nm | Binder
13 | 3.02 | B1
14 | 3.07 | B2
15 | 2.83 | B3

molecular target: T6, cyno PD-1^ECD-hFc protein (cyno monkey, UniProt B0LAJ3 25-167); assay: ELISA, coated cyno PD-1ECD-hFc; antibody 10 nM
T6 construct: Prepared by the method for Immunogen A; also called Cyno Monkey PD-1^ECD-hFc; cyno monkey PD-1-hFc; not shown: human IgG Fc fragment (hFc) and its junction to the ECD
Method: as §1

T6 sequence (B0LAJ3 entry or part of it limits assumed): as the sequence (Q15116 25-167) above, with D2E, P10A, V19L, T35A, Q75R counted along it

Row | OD450 nm | Binder
16 | 1.51 | B1
17 | 1.62 | B2
18 | 2.63 | B3

molecular target: T5, human PD-1^ECD-hFc protein (Immunogen A); assay: ELISA, coated human PD-1ECD-hFc; antibody 10 nM
Method: as §1

Row | OD450 nm | Binder
19 | 3.14 | B1
20 | 3.12 | B2
21 | 2.87 | B3

molecular target: T6, cyno PD-1^ECD-hFc protein; assay: ELISA, coated cyno PD-1ECD-hFc; antibody 0.1 nM
Method: as §1

Row | OD450 nm | Binder
22 | 0.29 | B1
23 | 0.56 | B2
24 | 0.972 | B3

molecular target: T6, cyno PD-1^ECD-hFc protein; assay: ELISA, coated cyno PD-1ECD-hFc; antibody 0.01 nM
Method: as §1

Row | OD450 nm | Binder
25 | 0.1 | B1
26 | 0.14 | B2
27 | 0.27 | B3

molecular target: T5, human PD-1^ECD-hFc protein (Immunogen A); assay: ELISA, coated human PD-1ECD-hFc; antibody 0.01 nM
Method: as §1

Row | OD450 nm | Binder
28 | 0.55 | B1
29 | 0.65 | B2
30 | 0.669 | B3

molecular target: T4, CD28; assay: ELISA, coated protein 1 ug/mL; antibody concentration not stated
Method: as §1

Row | OD450 nm | Binder
31 | 0.062 | B1
32 | 0.061 | B2
33 | 0.144 | B3

molecular target: T1, B7-1; assay: as above
Method: as §1

Row | OD450 nm | Binder
34 | 0.36 | B1
35 | 0.271 | B2
36 | 0.154 | B3

molecular target: T2, ICOS; assay: as above
Method: as §1

Row | OD450 nm | Binder
37 | 0.483 | B1
38 | 0.173 | B2
39 | 0.128 | B3

molecular target: T3, CTLA4; assay: as above
Method: as §1

Row | OD450 nm | Binder
40 | 0.172 | B1
41 | 0.135 | B2
42 | 0.091 | B3

molecular target: T5, human PD-1^ECD-hFc protein (Immunogen A); assay: as above
Method: as §1

Row | OD450 nm | Binder
43 | 2.69 | B1
44 | 2.76 | B2
45 | 2.25 | B3

molecular target: T5, human PD-1^ECD-hFc protein (Immunogen A); assay: protein-based receptor-ligand blocking ELISA: coated PD-1ECD-hFc, blocked ligand biotinylated PD-L1ECD, streptavidin-HRP
Method: (§2) Purified PD-1^ECD-hFc (Example 2) was diluted with PBS to a final concentration of 1.0 ug/mL, and 100 uL diluted PD-1^ECD-hFc were added to each well of a 96-well plate that was then sealed with plastic film and incubated at 4° C. overnight. The plate was washed twice with wash buffer (PBS+0.01% (v/v) Tween 20) and incubated with blocking buffer (PBS+[…]) at room temperature for 2 hours. The blocking buffer was aspirated, and 50 uL purified anti-PD-1 antibodies from Example 2 were added to each well of 96-well plate. […] The plate was washed three times with wash buffer (PBS+0.01% (v/v) Tween 20). 100 uL HRP-conjugated streptavidin (Sigma) were then added to each well and incubated at 37° C. for 2 hours. The plate was then washed three times with wash buffer, and 100 uL TMB substrate were added to each well. After 30 minutes of incubation at room temperature, the reaction was stopped by adding 100 uL stop solution (0.1N HCl). The absorbance at OD450 nm was measured with an ELISA plate reader (384plus SpectraMax, Molecular Devices).

Row | IC50 (read off the curve) | Binder
46 | ~1 nM | B1
47 | ~0.9 nM | B2
48 | ~0.4 µg/mL | B3

molecular target: T5, human PD-1^ECD-hFc protein (Immunogen A); assay: protein-based receptor-ligand blocking ELISA: coated PD-1ECD-hFc, blocked ligand biotinylated PD-L2ECD, streptavidin-HRP
Method: as §2

Row | IC50 (read off the curve) | Binder
49 | ~2 nM | B1
50 | ~1 nM | B2
51 | ~0.6 µg/mL | B3
